This note sets out measurements from the supplement of paper PMC9170038.

The test system of the data set is MS2 coat protein. As to the kind of experiment: apparent KD of MS2 coat protein; designed switch direction (-1 OFF switch, 1 ON switch): 1; higher = weaker reporter binding. The method in brief: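 Three titration conditions were used: no input, 200 uM small-molecule ligand, and an oligonucleotide input. In each, SNAP-549-labelled MS2 coat protein was raised from 0.7 or 1.5 nM, doubling, to 3 µM over designed RNA switches transcribed on Illumina chips by stalled E. coli RNA polymerase. Curve fits of normalised cluster fluorescence gave values whose per-design median over clusters is the apparent KD.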

Setting [1] is: input ligand: microRNA oligo, concentration not stated.
The mark [2] stands for this setting: Eterna round: R95, input ligand: FMN 200 uM.
Setting [3] is: Eterna round: R95, input ligand: microRNA oligo, concentration not stated.
[4] abbreviates: Eterna round: R95, input ligand: none.

Take “UCGUUCAUCGUAGGAUAUCUAGGAUAUGAACGAGGAUCACCCGAGCAGCAUCAGCGCAUCAGAGGAGAGAAGGACGAUGAUGCG [pwkr ssNG2 2F5 2FMN.4] (Eterna round: R96, puzzle: Same State NG 2)”: the “apparent KD of MS2 coat protein” value by setting is: (input ligand: FMN 200 uM) 1080 nM; under setting [1], 37.2 nM; (input ligand: none) 172 nM.

For the sequence “UGGCUCAGACGAGGAUAUAUGUGAUCACAUGAGGAUCACCCAUGUCUCGAGCUUCGGCUCGAGACAUAGAAGGUGUCUGAGCCA [SSNG2/3-C2] (Eterna round: R96, puzzle: Same State NG 2)”, the “apparent KD of MS2 coat protein” value (input ligand: FMN 200 uM) was 14.8 nM, the “apparent KD of MS2 coat protein” value under setting [1] came out at 96.2 nM and the “apparent KD of MS2 coat protein” value (input ligand: none) turned out to be 49.5 nM.

Turning to “UAAGAACAUGAGGAUCACCCAUGUGGAAAGAACACAGGAUAUCAUAGUAGAACGAGACUAUGAGAAGGGUGACACG [Texeistean] (puzzle: Same State 1)”, the “apparent KD of MS2 coat protein” value was found to be 595 nM under setting [2], 214 nM under setting [3] and 666 nM under setting [4].

As to “CUGUCUACAGGUGUCUUUGCUCGUUUUAUACAUGAGGAUCACCCAUGUUGUAGCCCGGUGCUUGCGCUGGGCUGGUU [JL ViennaUCT Tearor mod 9] (puzzle: Sensor for hsa-mir-208a)”, the “apparent KD of MS2 coat protein” value amounted to 66 nM under setting [2], 15.6 nM under setting [3] and 72.7 nM under setting [4].

With “UAGUACAUGCUUUUUGCCCGUCUUAGAUAACAUGAGGAUCACCCAUGUAAGGUGAAAGUUAUAUAGUGGAGGAAGAU [JR_SHM208A_Sub055] (puzzle: Sensor for hsa-mir-208a)”, the “apparent KD of MS2 coat protein” value is, setting by setting: under setting [2], 107 nM; under setting [3], 360 nM; under setting [4], 107 nM.

Take “GCGGUACCUAACAUGAGGAUCACCCAUGUUCCGGAAACGGCACAGGAUAUCUGUCCGAAAAGGUCAGAGAAGGGUGAAAUCCGC [Fiskers NG3ss - 93] (Eterna round: R96, puzzle: Same State NG 3)”: the “apparent KD of MS2 coat protein” value by setting is: (input ligand: FMN 200 uM) 361 nM; under setting [1], 51.6 nM; (input ligand: none) 93.3 nM.

For the sequence “AGCUAGGUGGCAGGAUAUGGGCACACCUACAUGAGGAUCACCCAUGUCUAAAGGUUGCAAAAGGACCAGAAGGGCCACGCUAGC [Onzaislege] (Eterna round: R96, puzzle: Same State NG 2)”, the “apparent KD of MS2 coat protein” value came out at 19.2 nM (input ligand: FMN 200 uM), 82.7 nM under setting [1] and 178 nM (input ligand: none).

In the case of “UCUUGGUUUUUGCUCGUUUUUUGUGUUGAACAUGAGGAUCACCCAUGUAUUGUACGAUCCAAUUUGAUAAUGGUCCG [JMF 61] (puzzle: Sensor for hsa-mir-208a)”, the “apparent KD of MS2 coat protein” value under setting [2] was found to be 44.2 nM, the “apparent KD of MS2 coat protein” value under setting [3] turned out to be 34.4 nM and the “apparent KD of MS2 coat protein” value under setting [4] came out at 48.7 nM.

In the case of “CCGGGUAAUGGAGGAUAUGGAGCCUUAUUGGCUCCAGAAGGCUAACAUGAGGAUCACCCAUGUAGUCCGGCGGUCAAUAGACCG [Eli NG1ss - 66] (Eterna round: R96, puzzle: Same State NG 1)”, the “apparent KD of MS2 coat protein” value reads like this: (input ligand: FMN 200 uM) 10.5 nM; under setting [1], 13.2 nM; (input ligand: none) 19.2 nM.

In the case of “AGUCCAGCGAAAGCUGGACAAAAGCAUGUACAUGAGGAUCACCCAUGUUUAUGUACAAGCUUUUUGCUCGUUUUAAA [JL mod - D95 - 16] (puzzle: Sensor for hsa-mir-208a)”, the “apparent KD of MS2 coat protein” value reads like this: under setting [2], 365 nM; under setting [3], 13.1 nM; under setting [4], 433 nM.

Turning to “GUGGUCAGACAUGAGGAUCACCCAUGUGGAAUAAAUAAGGAAAAGGAUAUCUAAUAUAGGAUAUAAGAGAAGGUUUGGUUGGUG (Eterna round: R96, puzzle: Same State NG 3)”, the “apparent KD of MS2 coat protein” value by setting is: (input ligand: FMN 200 uM) 74.1 nM; under setting [1], 52.1 nM; (input ligand: none) 64.7 nM.

“AGGAAACAUGAGGAUCACCCAUGUAAAAAAGUGGGAGGAUAUACUAGAAGAAACAAAAUAGUAGAAGGCCUAAAAA [75%, Ex sub1, 32] (Eterna round: R96, puzzle: Same State 1)”: the “apparent KD of MS2 coat protein” value was determined as 19.1 nM (input ligand: FMN 200 uM), 37.7 nM under setting [1] and 42.3 nM (input ligand: none).

In the case of “UUGAAGAAUUAAGGAUAUUGAUUACAUAUGUAUAACAUGAGGAUCACCCAUGUGGGUUGCGGUAUCGAGAAGGUAAAUUACUAG [Mat - same State NG 2 - JL mod - D75] (Eterna round: R96, puzzle: Same State NG 2)”, the “apparent KD of MS2 coat protein” value (input ligand: FMN 200 uM) is 145 nM, the “apparent KD of MS2 coat protein” value under setting [1] was found to be 98.5 nM and the “apparent KD of MS2 coat protein” value (input ligand: none) was determined as 98.2 nM.

Regarding “UGUUGUAUUACAGGAUAUCUAAUAUUUUUAUUUAGAGAAGGGUAUUCACAUGAGGAUCACCCAUGUAUAUACGAGGAAGUUGUG [JMF's solution 8] (Eterna round: R96, puzzle: Same State NG 1)”, the “apparent KD of MS2 coat protein” value under setting [1] was determined as 24.6 nM.

As for “AUGAAGAAUUAAGGAUAUUGAUUACAUAUGUUUAACAUGAGGAUCACCCAUGUGGGUUGCGGUAUCGAGAAGGUAAAAUAAAAG [Mat - same State NG 2 - JL mod - D89] (Eterna round: R96, puzzle: Same State NG 2)”, the “apparent KD of MS2 coat protein” value came to 252 nM (input ligand: FMN 200 uM), 193 nM under setting [1] and 213 nM (input ligand: none).

For “AUAAAACACAUGAGGAUCACCCAUGUGGCCGAAGAAGGCACACAGGAUAUCAAGCAACUAAAGCUUGAGAAGGGUGAGACAAAA [Quistera] (Eterna round: R96, puzzle: Same State NG 3)”, the “apparent KD of MS2 coat protein” value by setting is: (input ligand: FMN 200 uM) 494 nM; under setting [1], 30.7 nM; (input ligand: none) 92.3 nM.

Consider “UCUUGGUUUUUGCUCGUUUUUUGUGUUGAACAUGAGGAUCACCCAUGUAUUGUACGGUCCGAUUUGAUGAUGGUCCA [JMF 42] (puzzle: Sensor for hsa-mir-208a)”, for which the “apparent KD of MS2 coat protein” value reads like this: under setting [2], 31.4 nM; under setting [3], 22.2 nM; under setting [4], 35.1 nM.

As to “UAGUUUUAGCGAGGAUAUCGUAUGUUUAAUUUUUUAUAUUGUUUACAUGAGGAUCACCCAUGUUACGAGAAGGCGCAUGGGAUU [JR_SSNG2_Sub080] (Eterna round: R96, puzzle: Same State NG 2)”, under setting [1], the “apparent KD of MS2 coat protein” value amounted to 273 nM.

Take “UGGUACAUGGGAGGAUAUCAUGUAGAAACAUGAGGAUCACCCAUGUAGAUGGCCGGUAACCGGGAUGAGAAGGCCCAUGUACCU [JL SSNG1 3.64] (Eterna round: R96, puzzle: Same State NG 2)”: the “apparent KD of MS2 coat protein” value by setting is: (input ligand: FMN 200 uM) 27 nM; under setting [1], 22.4 nM; (input ligand: none) 30.3 nM.

For “UGGUAACAUGAGGAUCACCCAUGUCAAAUGAAUCGAGGAUAUGGGAAUUAACAAUAUAAACUAGAAGGCGAAUUUG [Altered State 1-7 - Jieux - Same State 1] (puzzle: Same State 1)”, the “apparent KD of MS2 coat protein” value under setting [2] was 144 nM, the “apparent KD of MS2 coat protein” value under setting [3] stood at 284 nM and the “apparent KD of MS2 coat protein” value under setting [4] stood at 290 nM.

Regarding “AACUAUCUAUCUCAGGAUAUCAUGUCAAAGACAUGAGGAUCACCCAUGUACCAGGAAACUGGUUAUGAGAAGGGAGAUAGAUAGA [Mat - Same State 2 - Mod - D38] (puzzle: Same State 2)”, the “apparent KD of MS2 coat protein” value under setting [2] stood at 92.5 nM, the “apparent KD of MS2 coat protein” value under setting [3] was 87.7 nM and the “apparent KD of MS2 coat protein” value under setting [4] stood at 97 nM.

With “GUGCUCGUGUGAGGAUAUGCGGCCGGGUCGGCUGCAGAAGGUACUAUUAUACAUGAGGAUCACCCAUGUCGCUUUUCUCCGGUG [salish99_SSNG1_r04_919] (Eterna round: R96, puzzle: Same State NG 1)”, the “apparent KD of MS2 coat protein” value (input ligand: FMN 200 uM) is 62.5 nM, the “apparent KD of MS2 coat protein” value under setting [1] was found to be 41.2 nM and the “apparent KD of MS2 coat protein” value (input ligand: none) was 49 nM.

Regarding “UGAAUGGUGAUAGGAUAUACAUGAGGAAUCCUCGUAGAAGGAUCACGACAUGAGGAUCACCCAUGUAGCCGUCCGUAGACGGCG [salish99_SSNG1_r04_001] (Eterna round: R96, puzzle: Same State NG 1)”, the “apparent KD of MS2 coat protein” value was found to be 302 nM (input ligand: FMN 200 uM), 38.9 nM under setting [1] and 238 nM (input ligand: none).

Regarding “CGUAGGUAGCUGGAGGAUAUUCGAGUGGUAACAUGAGGAUCACCCAUGUGGAGAGAGGAACAUGAGGAGAAGGCUAGCUGCCUGC [JL-ss2-3.19 JL mod] (puzzle: Same State 2)”, the “apparent KD of MS2 coat protein” value under setting [2] was found to be 8.36 nM, the “apparent KD of MS2 coat protein” value under setting [3] stood at 21.7 nM and the “apparent KD of MS2 coat protein” value under setting [4] turned out to be 16.7 nM.

With “UGGAUCUAGGCUUGCCUGGGUCCAUGUUGACAUGAGGAUCACCCAUGUGUAUUCUAUAAGCUUUUUGUUUGUCAACU (puzzle: Sensor for hsa-mir-208a)”, the “apparent KD of MS2 coat protein” value reads like this: under setting [2], 62.5 nM; under setting [3], 23.3 nM; under setting [4], 130 nM.

Turning to “GUUAAACAUGAGGAUCACCCAUGUCAAUGUAGUCGAGGAUAUGGGCAGCUAUGAGGCGUACUAGAAGGCGAAGAGG [Mat - Same State 1 - Mod of JL - D11] (puzzle: Same State 1)”, the “apparent KD of MS2 coat protein” value is, setting by setting: under setting [2], 121 nM; under setting [3], 236 nM; under setting [4], 334 nM.

Turning to “AGUCCAGCGAAAGCUGGACAAAAGCAUGUACAUGAGGAUCACCCAUGUUCAUGUACAAGCUUUUUGCUCGUCUUAAA [Mat - Sensor - JL mod - D95] (Eterna round: R96, puzzle: Sensor for hsa-mir-208a)”, the “apparent KD of MS2 coat protein” value reads like this: (input ligand: FMN 200 uM) 485 nM; under setting [1], 14.1 nM; (input ligand: none) 467 nM.

Take “UAGGCUGGUACAGGAUAUGCCGUAUUUUAGUCGGCAGAAGGGUGCUCACAUGAGGAUCACCCAUGUAUACAGCCAGAUCAUGUU [MOD JMF Solution 2] (Eterna round: R96, puzzle: Same State NG 1)”: the “apparent KD of MS2 coat protein” value is, setting by setting: (input ligand: FMN 200 uM) 132 nM; under setting [1], 107 nM; (input ligand: none) 43.2 nM.
